How the values were obtained:
[1] = biological target: T1, F-actin from chicken breast muscle (chicken (endogenous in breast muscle), UniProt P68139 1-377); assay: cell-based or functional assay
[2] = biological target: T1, F-actin from chicken breast muscle; assay: co-sedimentation

B1: 110-kD protein-calmodulin complex of the intestinal microvillus (complex)
chain 1: MEATTSLLDAAAVGDLVMLDPLSEESLLRTLQERFSRGEIYTYIGEVVISVNPYKPLPIYTPEKVEEYHNCNFFAVKPHIYAIADDAYRSLRDRDRDQCILITGESGAGKTEASKLVMSYVAAVSSKGEEVDKVKEQLLQSNPVLEAFGNAKTIRNDNSSRFGKYMDVEFDFKGDPLGGVISNYLLEKSRIVRHVKGERNFHIFYQLLAGGSAQLLQQLKLRPDCSHYGYLNHEKSVLPGMDDAANFRAMQDAMAIIGFAPAEVTALLEVTAVVLKLGNVKLSSCFQASGMEASSITEPRELQEISQLIGLDPSTLEQALCSRTVKVRDESVLTALSVSQGYYGRDALAKNIYSRLFDWLVNRINTSIQVKPGKQRKVMGVLDIYGFEIFQDNGFEQFIINYCNEKLQQIFILMTLKEEQEEYVREGIQWTPVEFFDNSIICDLIENSKVGILAMLDEECLRPGTVNEDTFITKLNQIFASHKRYESKETLNAKHVTDVSLPLRCFRIHHYAGKVTYNVTGFIEKNNDLLFRDLSQAMWAARHTLLRSLFPEGDPQRPSLKLPPTTGSQFKASVATLMKNLYSKNPNYIRCIKPNDTKTAMLFTPDLVLAQVRYLGLMENVRVRRAGYAFRQLYQPFLERYKMLSRKTWPRWTGGDREGAEVLLAELKFPPEELAYGHTKIFIRSPRTLFDLEKRRQQRVAELATLIQKMFRGWCCRKRYQLMRKSQILISAWFRGHMQRNRYKQMKRSVLLLQAYARGWKTRRMYRRYFRSDACTRLSNFIYRRMVQKYLMGLQKNLPPMAVLDRTWPPAPYKFLSDANQELKSIFYRWKCKKYREQLTPQQRAMLQAKLCASELFKDKKALYAQSLQQPFRGEYLGLTQNRKYQKLQAVAKDKLVMAEAVQKVNRANGKTVPRLLLLTTEHLVLADPKAAQPKMVLSLCDIQGASVSRFSDGLLALHLKETSTAGGKGDLLLVSPHLIELVTRLHQTLMDATAQALPLSIADQFSTRFPKGDVAVTVVESAKGGGDVPVCKKRGSHKMEILVH
chain 2: […]
actin activation of the MgATPase activity of 110K-CM, F-actin 0.1 to 60 uM, 35C [1]: 2.5 to 3.5 fold | mass ratio of 110K-CM to actin at apparent saturation [2]: ~20 110K-CM:actin by mass
